According to patent US20110091994A1, “Methods for Screening Compounds for Treating and/or Preventing an Hepatitis C Virus Infection” (priority 2008, published 2011):
Read-outs that look alike come from different tables or passages of the source.

B1: SLIT2 (protein, UniProt O94813 31-1529, looked up)
Slit homolog 2 protein: QCSCSGSTVDCHGLALRSVPRNIPRNTERLDLNGNNITRITKTDFAGLRHLRVLQLMENKISTIERGAFQDLKELERLRLNRNHLQLFPELLFLGTAKLYRLDLSENQIQAIPRKAFRGAVDIKNLQLDYNQISCIEDGAFRALRDLEVLTLNNNNITRLSVASFNHMPKLRTFRLHSNNLYCDCHLAWLSDWLRQRPRVGLYTQCMGPSHLRGHNVAEVQKREFVCSGHQSFMAPSCSVLHCPAACTCSNNIVDCRGKGLTEIPTNLPETITEIRLEQNTIKVIPPGAFSPYKKLRRIDLSNNQISELAPDAFQGLRSLNSLVLYGNKITELPKSLFEGLFSLQLLLLNANKINCLRVDAFQDLHNLNLLSLYDNKLQTIAKGTFSPLRAIQTMHLAQNPFICDCHLKWLADYLHTNPIETSGARCTSPRRLANKRIGQIKSKKFRCSAKEQYFIPGTEDYRSKLSGDCFADLACPEKCRCEGTTVDCSNQKLNKIPEHIPQYTAELRLNNNEFTVLEATGIFKKLPQLRKINFSNNKITDIEEGAFEGASGVNEILLTSNRLENVQHKMFKGLESLKTLMLRSNRITCVGNDSFIGLSSVRLLSLYDNQITTVAPGAFDTLHSLSTLNLLANPFNCNCYLAWLGEWLRKKRIVTGNPRCQKPYFLKEIPIQDVAIQDFTCDDGNDDNSCSPLSRCPTECTCLDTVVRCSNKGLKVLPKGIPRDVTELYLDGNQFTLVPKELSNYKHLTLIDLSNNRISTLSNQSFSNMTQLLTLILSYNRLRCIPPRTFDGLKSLRLLSLHGNDISVVPEGAFNDLSALSHLAIGANPLYCDCNMQWLSDWVKSEYKEPGIARCAGPGEMADKLLLTTPSKKFTCQGPVDVNILAKCNPCLSNPCKNDGTCNSDPVDFYRCTCPYGFKGQDCDVPIHACISNPCKHGGTCHLKEGEEDGFWCICADGFEGENCEVNVDDCEDNDCENNSTCVDGINNYTCLCPPEYTGELCEEKLDFCAQDLNPCQHDSKCILTPKGFKCDCTPGYVGEHCDIDFDDCQDNKCKNGAHCTDAVNGYTCICPEGYSGLFCEFSPPMVLPRTSPCDNFDCQNGAQCIVRINEPICQCLPGYQGEKCEKLVSVNFINKESYLQIPSAKVRPQTNITLQIATDEDSGILLYKGDKDHIAVELYRGRVRASYDTGSHPASAIYSVETINDGNFHIVELLALDQSLSLSVDGGNPKIITNLSKQSTLNFDSPLYVGGMPGKSNVASLRQAPGQNGTSFHGCIRNLYINSELQDFQKVPMQTGILPGCEPCHKKVCAHGTCQPSSQAGFTCECQEGWMGPLCDQRTNDPCLGNKCVHGTCLPINAFSYSCKCLEGHGGVLCDEEEDLFNPCQAIKCKHGKCRLSGLGQPYCECSSGYTGDSCDREISCRGERIRDYYQKQQGYAACQTTKKVSRLECRGGCAGGQCCGPLRSKRRKYSFECTDGSSFVDEVEKVVKCGCTRCVS
B2: PAK4 (protein, UniProt O96013 1-591, looked up)
Serine/threonine-protein …: MFGKRKKRVEISAPSNFEHRVHTGFDQHEQKFTGLPRQWQSLIEESARRPKPLVDPACITSIQPGAPKTIVRGSKGAKDGALTLLLDEFENMSVTRSNSLRRDSPPPPARARQENGMPEEPATTARGGPGKAGSRGRFAGHSEAGGGSGDRRRAGPEKRPKSSREGSGGPQESSRDKRPLSGPDVGTPQPAGLASGAKLAAGRPFNTYPRADTDHPSRGAQGEPHDVAPNGPSAGGLAIPQSSSSSSRPPTRARGAPSPGVLGPHASEPQLAPPACTPAAPAVPGPPGPRSPQREPQRVSHEQFRAALQLVVDPGDPRSYLDNFIKIGEGSTGIVCIATVRSSGKLVAVKKMDLRKQQRRELLFNEVVIMRDYQHENVVEMYNSYLVGDELWVVMEFLEGGALTDIVTHTRMNEEQIAAVCLAVLQALSVLHAQGVIHRDIKSDSILLTHDGRVKLSDFGFCAQVSKEVPRRKSLVGTPYWMAPELISRLPYGPEVDIWSLGIMVIEMVDGEPPYFNEPPLKAMKMIRDNLPPRLKNLHKVSPSLKGFLDRLLVRDPAQRATAAELLKHPFLAKAGPPASIVPLMRQNRTR
B3: SIAH1 (protein, UniProt Q8IUQ4 1-282, looked up)
E3 ubiquitin-protein ligase …: MSRQTATALPTGTSKCPPSQRVPALTGTTASNNDLASLFECPVCFDYVLPPILQCQSGHLVCSNCRPKLTCCPTCRGPLGSIRNLAMEKVANSVLFPCKYASSGCEITLPHTEKADHEELCEFRPYSCPCPGASCKWQGSLDAVMPHLMHQHKSITTLQGEDIVFLATDINLPGAVDWVMMQSCFGFHFMLVLEKQEKYDGHQQFFAIVQLIGTRKQAENFAYRLELNGHRRRLTWEATPRSIHEGIATAIMNSDCLVFDTSIAQLFAENGNLGINVTISMC
B4: SESTD1 (protein, UniProt Q86VW0 1-696, looked up)
SEC14 domain and spectrin …: MEASVILPILKKKLAFLSGGKDRRSGLILTIPLCLEQTNMDELSVTLDYLLSIPSEKCKARGFTVIVDGRKSQWNVVKTVVVMLQNVVPAEVSLVCVVKPDEFWDKKVTHFCFWKEKDRLGFEVILVSANKLTRYIEPCQLTEDFGGSLTYDHMDWLNKRLVFEKFTKESTSLLDELALINNGSDKGNQQEKERSVDLNFLPSVDPETVLQTGHELLSELQQRRFNGSDGGVSWSPMDDELLAQPQVMKLLDSLREQYTRYQEVCRQRSKRTQLEEIQQKVMQVVNWLEGPGSEQLRAQWGIGDSIRASQALQQKHEEIESQHSEWFAVYVELNQQIAALLNAGDEEDLVELKSLQQQLSDVCYRQASQLEFRQNLLQAALEFHGVAQDLSQQLDGLLGMLCVDVAPADGASIQQTLKLLEEKLKSVDVGLQGLREKGQGLLDQISNQASWAYGKDVTIENKENVDHIQGVMEDMQLRKQRCEDMVDVRRLKMLQMVQLFKCEEDAAQAVEWLSELLDALLKTHIRLGDDAQETKVLLEKHRKFVDVAQSTYDYGRQLLQATVVLCQSLRCTSRSSGDTLPRLNRVWKQFTIASEERVHRLEMAIAFHSNAEKILQDCPEEPEAINDEEQFDEIEAVGKSLLDRLTVPVVYPDGTEQYFGSPSDMASTAENIRDRMKLVNLKRQQLRHPEMVTTES
B5: SF3B2 (protein, UniProt Q13435 1-895, looked up)
Splicing factor 3B subunit 2: MATEHPEPPKAELQLPPPPPPGHYGAWAAQELQAKLAEIGAPIQGNREELVERLQSYTRQTGIVLNRPVLRGEDGDKAAPPPMSAQLPGIPMPPPPLGLPPLQPPPPPPPPPPGLGLGFPMAHPPNLGPPPPLRVGEPVALSEEERLKLAQQQAALLMQQEERAKQQGDHSLKEHELLEQQKRAAVLLEQERQQEIAKMGTPVPRPPQDMGQIGVRTPLGPRVAAPVGPVGPTPTVLPMGAPVPRPRGPPPPPGDENREMDDPSVGPKIPQALEKILQLKESRQEEMNSQQEEEEMETDARSSLGQSASETEEDTVSVSKKEKNRKRRNRKKKKKPQRVRGVSSESSGDREKDSTRSRGSDSPAADVEIEYVTEEPEIYEPNFIFFKRIFEAFKLTDDVKKEKEKEPEKLDKLENSAAPKKKGFEEEHKDSDDDSSDDEQEKKPEAPKLSKKKLRRMNRFTVAELKQLVARPDVVEMHDVTAQDPKLLVHLKATRNSVPVPRHWCFKRKYLQGKRGIEKPPFELPDFIKRTGIQEMREALQEKEEQKTMKSKMREKVRPKMGKIDIDYQKLHDAFFKWQTKPKLTIHGDLYYEGKEFETRLKEKKPGDLSDELRISLGMPVGPNAHKVPPPWLIAMQRYGPPPSYPNLKIPGLNSPIPESCSFGYHAGGWGKPPVDETGKPLYGDVFGTNAAEFQTKTEEEEIDRTPWGELEPSDEESSEEEEEEESDEDKPDETGFITPADSGLITPGGFSSVPAGMETPELIELRKKKIEEAMDGSETPQLFTVLPEKRTATVGGAMMGSTHIYDMSTVMSRKGPAPELQGVEVALAPEELELDPMAMTQKYEEHVREQQAQVEKEDFSDMVAEHAAKQKQKKRKAQPQDSRGGSKKYKEFKF

Assays:
[1] = target: T1, HCV ORFs (Gal4-DB fusions) (Hepatitis C virus genotype 1b, UniProt Q9WMX2); assay type: binding, HCV genotype 1b, isolate con1; details: human protein as prey
T1 construct: expressed in transfected cells; host or cells: Saccharomyces cerevisiae MAV203 (IMAP1) / AH109 (IMAP2)

[2] = tested on: HCV ORFs (Gal4-DB fusions); assay type: binding, HCV genotype 1b, isolate con1; details: human protein listed by gene symbol; the value names the HCV protein it interacts with
HCV proteins = target: T2, HCV proteins (Hepatitis C virus genotype 1b, UniProt Q9WMX2); test: Validation by Y2H pairwise matrices; assay type: binding;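 further: yeast two-hybrid pairwise tests of interactions first found in Y2H screens of HCV bait proteins against human cDNA libraries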
T2 construct: expressed in transfected cells

[3] = validation of interaction with HCV protein NS3
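Wherever IMAP Y2H IMAP1 (number of IST) is given: yeast two-hybrid screens using HCV genotype 1b proteins fused to Gal4-DB as baits against prey cDNA libraries from human spleen and foetal brain, IMAP1 via transformation and IMAP2 via mating.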
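Wherever Interaction with viral protein is given: yeast two-hybrid screens using HCV genotype 1b proteins fused to Gal4-DB as baits against prey cDNA libraries from human spleen and foetal brain, IMAP1 via transformation and IMAP2 via mating.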

Molecule	IMAP Y2H IMAP1 (number of IST) ([1]; HCV protein NS3 as bait)	IMAP Y2H IMAP1 (number of IST) ([1]; HCV protein p7 as bait)	Interaction with viral protein [2]	Y2H matrices (HCV proteins; interaction with HCV protein p7)	Y2H matrices (HCV proteins; [3])	IMAP Y2H IMAP1 (number of IST) ([1]; HCV protein CORE as bait)	Y2H matrices (HCV proteins; validation of interaction with HCV protein CORE)
B1	5	1	NS3	+	+	–	–
B2	–	–	CORE	–	–	1	+
B3	1	–	NS3	–	+	–	–
B4	1	–	NS3	–	+	–	–
B5	1	–	NS3	–	+	–	–
